Reference: patent US4423037A, “Inhibitors of peptide hormone action” (The General Hospital Corporation, priority 1982, dated 1983)

System: parathyroid hormone
Assay: In vivo inhibition of PTH-stimulated urinary cyclic AMP excretion in thyroparathyroidectomized vitamin D deficient rats
Conditions: same experiment as FIG. 1
Method: The compound [Tyr-34]bPTH(7-34)amide was administered in vivo as an inhibitor of PTH stimulated biological activities. The effectivenss of the treatment was measured by measuring the urinary phosphate and cyclic AMP, standard procedures well known in endocrinology as valid measure of PTH activity. The dosage of PTH analogues used varied from more than 3.0 μg/Kg/hr to less than 15 mg/Kg/hr, optimally between 0.3 mg/Kg/hr and 1.5 mg/Kg/hr. Single bolus dosages were occassionally utilized as indicated containing the equivalent of many hours of the infusion procedure.
Male weanling Holtzman rats were maintained on a purified vitamin D deficient diet containing 0.44% calcium and 0.30% phosphorous for 7 weeks. At this time, the rats weighed 130-170 g. Thyroparathyroidectomy of the vitamin D deficient rats was preformed under anesthesia with ketamin hydrochloride injected intratraperitoneally. The femoral vein was cannulated with a heparin-treated polyethylene tube, and the blood was collected via the catheter for determination of blood chemistries. When needed both femoral veins were cannulated. A polyethylene catheter was also inserted into the urinary bladder via the ventral approach. […]
FIG. 2 is an experiment identical to that shown in FIG. 1, however, urinary cyclic AMP is now measured instead of urinary phosphate. […]

B1: bovine parathyroid hormone (protein, UniProt P01268 32-115, looked up)
Parathyroid hormone: AVSEIQFMHNLGKHLSSMERVEWLRKKLQDVHNFVALGASIAYRDGSSQRPRKKEDNVLVESHQKSLGEADKADVDVLIKAKPQ
modifications: Parathyroid hormone
notes: native 84-amino acid bovine parathyroid hormone, infused as the agonist
  effect on urine cyclic AMP production, substance administered alone (FIG. 2): marked effect
